# Test results from EP0717753B1.
# Assays:
# [1] = biological target: p185 HER2/neu (UniProt P04626); experiment: radioimmunoassay on fixed SKBR3 cells, 125I anti-mouse Ig secondary antibody
# [2] = biological target: Epidermal Growth Factor Receptor (UniProt P00533); experiment: cell-based or functional assay
# [3] = biological target: Epidermal Growth Factor Receptor (UniProt P00533); experiment: radioimmunoassay on fixed A431 cells, 125I anti-mouse Ig secondary antibody
# [4] = biological target: p185 HER2/neu (UniProt P04626); experiment: radioimmunoassay on fixed SKBR3 cells (non-target cell line for Mint5), 125I anti-mouse Ig secondary antibody
# [5] = biological target: Epidermal Growth Factor Receptor (UniProt P00533); experiment: radioimmunoassay on fixed A431 cells (non-target cell line for MGR6), 125I anti-mouse Ig secondary antibody
Substance,% binding [1] [%],"INHIBITION OF CELL PROLIFERATION: IC50 CELL LINE A431, protocol A [2]","INHIBITION OF CELL PROLIFERATION: IC50 CELL LINE A431, protocol B [2]","INHIBITION OF PROTEIN … IN CELL SYSTEM: IC50 CELL LINE A431, protocol A [2]","INHIBITION OF PROTEIN … IN CELL SYSTEM: IC50 CELL LINE A431, protocol B [2]",% binding [3] [%],% binding [4] [%],% binding [5] [%]
immunoconjugate MGR6 - Piramidatine (antibody),105,–,–,–,–,–,–,–
immunoconjugate Mint5 - Piramidatine (antibody),–,1.3e-12,4.2e-11,1e-11,1e-11,110,18.8,–
immunoconjugate Mint5 - Ocymoidine (antibody),–,1.9e-12,3.2e-11,1e-11,1e-11,78.5,9.38,–
immunoconjugate MGR6 - Ocymoidine (antibody),87.5,–,–,–,–,–,–,15.3
